The values below come from patent US20240043505A1.

The target in the test is SARS-CoV-2 RBD E484K mutant (SARS-CoV-2), P0DTC2. The settings on record: remark: other sources report otherwise.

B1: Nb21 (VHH)
VHH: QVQLVESGGGLVQAGGSLRLSCAVSGLGAHRVGWFRRAPGKEREFVAAIGANGGNTNYLDSVKGRFTISRDNAKNTIYLQMNSLKPQDTAVYYCAARDIETAEYTYWGQGTQVTVSS
B1: the binding affinity fold change relative to RBD WT is < -1000 fold.
